Measured values as given in patent publication US20220089695A1 (NEW YORK UNIVERSITY, published 2022).

B1: Dendritic cell-specific intercellular adhesion molecule-3-grabbing nonintegrin expressed on cells (receptor)
chain: MSDSKEPRLQQLGLLEEEQLRGLGFRQTRGYKSLAGCLGHGPLVLQLLSFTLLAGLLVQVSKVPSSISQEQSRQDAIYQNLTQLKAAVGELSEKSKLQEIYQELTQLKAAVGELPEKSKLQEIYQELTRLKAAVGELPEKSKLQEIYQELTWLKAAVGELPEKSKMQEIYQELTRLKAAVGELPEKSKQQEIYQELTRLKAAVGELPEKSKQQEIYQELTRLKAAVGELPEKSKQQEIYQELTQLKAAVERLCHPCPWEWTFFQGNCYFMSNSQRNWHDSITACKEVGAQLVVIKSAEEQNFLQLQSSRSNRFTWMGLSDLNQEGTWQWVDGSPLLPSFKQYWNRGEPNNVGEEDCAEFSGNGWNDDKCNLAKFWICKKSAASCSRDEEQFLSPAPATPNPPPA
notes: whole, on cells; also called DC-SIGN; CD209
B2: Asialoglycoprotein Receptor 1 expressed on cells (receptor)
chain: MTKEYQDLQHLDNEESDHHQLRKGPPPPQPLLQRLCSGPRLLLLSLGLSLLLLVVVCVIGSQNSQLQEELRGLRETFSNFTASTEAQVKGLSTQGGNVGRKMKSLESQLEKQQKDLSEDHSSLLLHVKQFVSDLRSLSCQMAALQGNGSERTCCPVNWVEHERSCYWFSRSGKAWADADNYCRLEDAHLVVVTSWEEQKFVQHHIGPVNTWMGLHDQNGPWKWVDGTDYETGFKNWRPEQPDDWYGHGLGGGEDCAHFTDDGRWNDDVCQRPYRWVCETELDKASQEPPLL
notes: whole, on cells; also called ASGR1
B3: Liver/lymph node-specific intercellular adhesion molecule-3-grabbing integrin expressed on cells (receptor)
chain: MSDSKEPRVQQLGLLEEDPTTSGIRLFPRDFQFQQIHGHKSSTGCLGHGALVLQLLSFMLLAGVLVAILVQVSKVPSSLSQEQSEQDAIYQNLTQLKAAVGELSEKSKLQEIYQELTQLKAAVGELPEKSKLQEIYQELTRLKAAVGELPEKSKLQEIYQELTRLKAAVGELPEKSKLQEIYQELTRLKAAVGELPEKSKLQEIYQELTELKAAVGELPEKSKLQEIYQELTQLKAAVGELPDQSKQQQIYQELTDLKTAFERLCRHCPKDWTFFQGNCYFMSNSQRNWHDSVTACQEVRAQLVVIKTAEEQNFLQLQTSRSNRFSWMGLSDLNQEGTWQWVDGSPLSPSFQRYWNSGEPNNSGNEDCAEFSGSGWNDNRCDVDNYWICKKPAACFRDE
notes: whole, on cells; also called L-SIGN; CLEC4M
B4: C-type lectin domain family 10 member A expressed on cells (receptor)
chain: MTRTYENFQYLENKVKVQGFKNGPLPLQSLLQRLCSGPCHLLLSLGLGLLLLVIICVVGFQNSKFQRDLVTLRTDFSNFTSNTVAEIQALTSQGSSLEETIASLKAEVEGFKQERQAGVSELQEHTTQKAHLGHCPHCPSVCVPVHSEMLLRVQQLVQDLKKLTCQVATLNNNASTEGTCCPVNWVEHQDSCYWFSHSGMSWAEAEKYCQLKNAHLVVINSREEQNFVQKYLGSAYTWMGLSDPEGAWKWVDGTDYATGFQNWKPGQPDDWQGHGLGGGEDCAHFHPDGRWNDDVCQRPYHWVCEAGLGQTSQESH
notes: whole, on cells; also called CLEC10A
B5: Liver and lymph node sinusoidal endothelial cell C-type lectin expressed on cells (receptor)
chain: MDTTRYSKWGGSSEEVPGGPWGRWVHWSRRPLFLALAVLVTTVLWAVILSILLSKASTERAALLDGHDLLRTNASKQTAALGALKEEVGDCHSCCSGTQAQLQTTRAELGEAQAKLMEQESALRELRERVTQGLAEAGRGREDVRTELFRALEAVRLQNNSCEPCPTSWLSFEGSCYFFSVPKTTWAAAQDHCADASAHLVIVGGLDEQGFLTRNTRGRGYWLGLRAVRHLGKVQGYQWVDGVSLSFSHWNQGEPNDAWGRENCVMMLHTGLWNDAPCDSEKDGWICEKRHNC
notes: whole, on cells; also called LSECtin; CLEC4G

Target: T1, S1-69/70 DelFc (SARS-CoV-2, UniProt P0DTC2 14-685)
T1 construct: domain: S1
Test: Fc-tagged protein on receptor-expressing HEK293T cells (FIG. 13A)

Binder | binding result
B1 | binds
B2 | binds
B3 | binds
B4 | binds
B5 | binds
